One block for each binder: values may come before it.
What was measured:
[1] = target: cMyc-tagged C-terminal TLR2 (cTLR2) recombinant protein, C-terminal TIR domain of TLR2 (640-784 amino acids) (UniProt Q9QUN7); assay: SPR, cTLR2 immobilised; reference mTIDM
[2] = target: cMyc-tagged C-terminal TLR2 (cTLR2) recombinant protein, C-terminal TIR domain of TLR2 (640-784 amino acids) (UniProt Q9QUN7); assay: SPR, cTLR2 immobilised, peptide as analyte; equilibrium response versus peptide concentration; wtTIDM peptide
[3] = target: cMyc-tagged C-terminal TLR2 (cTLR2) recombinant protein, C-terminal TIR domain of TLR2 (640-784 amino acids) (UniProt Q9QUN7); assay: thermal shift assay of cTLR2 with wtTIDM peptide
[4] = target: cMyc-tagged C-terminal TLR2 (cTLR2) recombinant protein, C-terminal TIR domain of TLR2 (640-784 amino acids) (UniProt Q9QUN7); assay: SPR, cTLR2 immobilised, peptide as analyte; equilibrium response versus peptide concentration; mTIDM (mutated) peptide
[5] = target: cMyc-tagged C-terminal TLR2 (cTLR2) recombinant protein, C-terminal TIR domain of TLR2 (640-784 amino acids) (UniProt Q9QUN7); assay: thermal shift assay of cTLR2 with mTIDM peptide

Chain of cMyc-tagged C-terminal TLR2 (cTLR2) recombinant protein, C-terminal TIR domain of TLR2 (640-784 amino acids) (Q9QUN7 640-784 limits assumed, form in doubt): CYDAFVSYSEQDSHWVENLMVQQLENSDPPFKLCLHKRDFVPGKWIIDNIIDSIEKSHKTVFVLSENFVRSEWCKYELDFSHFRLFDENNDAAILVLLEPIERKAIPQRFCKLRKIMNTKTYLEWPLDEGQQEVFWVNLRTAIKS

- fold stronger affinity than mTIDM [1]: 2.5 fold
- Kd [2]: 8 µM
- ΔTm (shift of melting temperature) [3]: 4.96 ° C.
B1: Wild type (wt) TIDM peptide (TLR2-interacting domain of MyD88 joined to Antennapedia homeodomain) (peptide)
peptide: DRQIKIWFQNRRMKWKKPGAHQK

- Kd [4]: 19 µM
- ΔTm (shift of melting temperature) [5]: 0.87 ° C.
B2: Mutated (m) TIDM peptide (peptide)
peptide: DRQIKIWFQNRRMKWKKPGWHQD

Reference: patent publication US20210361740A1
